Like-named read-outs stand apart in the source and are kept apart here.
Columns and labels:
[1] = target: HER2 on HER2-expressing BT474 and SKOV-3 cells (human (endogenous in BT474 and SKOV-3)) (UniProt P04626); assay: radioligand binding
[2] = target: HER2 (antigen of the Lindmo immunoreactive fraction assay; form not told); assay: Lindmo assay
[3] = target: HER2 on HER2-expressing BT474 and SKOV-3 cells (human (endogenous in BT474 and SKOV-3)) (UniProt P04626); assay: radioligand binding; remark: listed apart in the source

| Substance | percent associated with cells after 1 h at 4 °C [1] | immunoreactive fraction [2] | Kd [1] | Kd [3] | percent of input activity bound to cells after 1 h at 4 °C [1] |
| --- | --- | --- | --- | --- | --- |
| [^125I]MEGMIB-5F7GGC (VHH) | 5.8% |  |  |  |  |
| [^177Lu]Lu-DOTA-PODS-5F7GGC (VHH) |  | 71.2% |  |  |  |
| [^211At]MEAGMB-5F7GGC (VHH) |  | 69% | 3.4 nM |  |  |

Further lines, results first:

| percent associated with cells after 1 h at 4 °C [1] | immunoreactive fraction [2] | Kd [1] | Kd [3] | percent of input activity bound to cells after 1 h at 4 °C [1] | Substance |
| --- | --- | --- | --- | --- | --- |
|  | 84% | 5.9 nM | 3.3 nM | 7.4% | iso-[^131I]GMIB-PODS-5F7GGC (VHH) |
|  | 85.8% |  |  | 7.5% | iso-[^211At]AGMB-PODS-5F7GGC (VHH) |
